Results published in PMC2635894 (Biochemistry, 2008).
Substitutions are numbered along the chain they refer to. coumarin = not defined here

T1: HDAC8 (histone deacetylase 8) (Homo sapiens, UniProt Q9BY41, D101N)
T1 sequence (Q9BY41 1-377 D101N): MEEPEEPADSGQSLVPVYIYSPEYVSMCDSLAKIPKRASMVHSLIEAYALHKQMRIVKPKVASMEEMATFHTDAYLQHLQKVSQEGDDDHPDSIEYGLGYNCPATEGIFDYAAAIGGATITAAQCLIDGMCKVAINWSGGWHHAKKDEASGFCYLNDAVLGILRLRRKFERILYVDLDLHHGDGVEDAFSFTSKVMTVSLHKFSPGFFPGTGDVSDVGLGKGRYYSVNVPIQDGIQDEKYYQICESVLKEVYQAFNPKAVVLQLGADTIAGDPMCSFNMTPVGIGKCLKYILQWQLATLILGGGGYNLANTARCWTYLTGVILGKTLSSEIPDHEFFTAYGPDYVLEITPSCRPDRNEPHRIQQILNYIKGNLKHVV

T2: HDAC8 (histone deacetylase 8) (Homo sapiens, UniProt Q9BY41, D101A)
T2 sequence (Q9BY41 1-377 D101A): T1 sequence (Q9BY41 1-377 D101N) with N101A

T3: HDAC8 (histone deacetylase 8) (Homo sapiens, UniProt Q9BY41, D101E)
T3 sequence (Q9BY41 1-377 D101E): T1 sequence (Q9BY41 1-377 D101N) with N101E

T4: D101N HDAC8 (human histone deacetylase 8, D101N variant) (human, UniProt Q9BY41 1-377, D101N)
T4 sequence: T1 sequence (Q9BY41 1-377 D101N)

T5: D101L HDAC8 (human histone deacetylase 8, D101L variant) (human, UniProt Q9BY41 1-377, D101L)
T5 sequence: T1 sequence (Q9BY41 1-377 D101N) with N101L

T6: D101E HDAC8 (human histone deacetylase 8, D101E variant) (human, UniProt Q9BY41 1-377, D101E)
T6 sequence: T1 sequence (Q9BY41 1-377 D101N) with N101E

T7: D101A HDAC8 (human histone deacetylase 8, D101A variant) (human, UniProt Q9BY41 1-377, D101A)
T7 sequence: T1 sequence (Q9BY41 1-377 D101N) with N101A


Key:
[1] = target: T1, HDAC8 (histone deacetylase 8); assay: X-ray crystal structure; type: binding
[2] = target: T2, HDAC8 (histone deacetylase 8); assay: X-ray crystal structure; type: binding
[3] = target: T3, HDAC8 (histone deacetylase 8); assay: X-ray crystal structure; type: binding
[4] = target: T4, D101N HDAC8 (human histone deacetylase …); assay: cell-based or functional assay
[5] = target: T5, D101L HDAC8 (human histone deacetylase …); assay: cell-based or functional assay
[6] = target: T6, D101E HDAC8 (human histone deacetylase …); assay: cell-based or functional assay
[7] = target: T7, D101A HDAC8 (human histone deacetylase …); assay: cell-based or functional assay

Row | Molecule | X-ray crystal structure (2.65 Å) [1] | X-ray crystal structure (2.55 Å) [2] | X-ray crystal structure (2.85 Å) [3] | KM of deacetylation (Fluor de Lys assay, Co2+ enzyme, 25°C, pH 8.0) [4] [μM] | kcat/KM of deacetylation (Fluor de Lys assay, Co2+ enzyme, 25°C, pH 8.0) [4] [M^−1s^−1] | KM of deacetylation (Fluor de Lys assay, Co2+ enzyme, 25°C, pH 8.0) [5] [μM] | KM of deacetylation (Fluor de Lys assay, Co2+ enzyme, 25°C, pH 8.0) [6] [μM] | kcat/KM of deacetylation (Fluor de Lys assay, Co2+ enzyme, 25°C, pH 8.0) [6] [M^−1s^−1] | KM of deacetylation (Fluor de Lys assay, Co2+ enzyme, 25°C, pH 8.0) [7] [μM] | kcat/KM of deacetylation (Fluor de Lys assay, Co2+ enzyme, 25°C, pH 8.0) [7] [M^−1s^−1]
1 | CN(C)c1ccc(C(=O)NCCCCCCC(=O)NO)cc1 [M344, 4-(dimethylamino)-N-[7-(hydroxyamino)-7-oxoheptyl]-benzamide] | The alternate conformer is stabilized by a hydrogen bond interaction with N101 in D101N HDAC8 | Two conformations of the bound inhibitor are observed in the active sites of D101E, D101A and D101N HDACs | Two conformations of the bound inhibitor are observed in the active sites of D101E, D101A and D101N HDACs | – | – | – | – | – | – | –
2 | Ac-RHK(Ac)K(Ac)-coumarin (reading uncertain) [acetylated tetrapeptide substrate (N-acetyl-arginine-histidine-acetyllysine-acetyllysine-coumarin)] | – | – | – | > 1000 | 0.23 | > 1000 | 140 | 1100 | > 1000 | 0.23
